Results: the RNAGym collection of RNA variant scans (doi:10.7554/elife.80360)

B1: HDV Ribozyme (parent)
chain: GGCCGGCAUGGUCCCAGCCUCCUCGCUGGCGCCGGCUGGGCAACAUUCCGAGGGGACCGUCCCCUCGGUAAUGGCGAAUGGGACCCA

Variants of: B1
Assay: self-cleavage, relative activity (ratio to wild type); higher = more cleavage; co-transcriptional

Variant | self-cleavage
A56G C66A | 0.909
C33G C48G | 0.227
G5C C26G | 0.138
U9A U60C | 1.02
C14G C18U | 0.115
A16U G55C | 0.98
C64U A87U | 0.804
C84A A87C | 0.758
A42G C48U | 0.525
G54A G59C | 1.07
U23C A43C | 0.465
C64A A83G | 0.857
G59C U60C | 0.937
U23G G28A | 0.0941
C57G C64A | 1.04
C44A U65C | 0.804
G55A U72C | 1
G6C C21G | 0.0875
G31A A42U | 0.107
G1U G55C | 0.455
G29C A77U | 0.0369
C4G C44A | 0.0346
C18G A71U | 0.0723
A43U C85A | 0.499

Variant | self-cleavage
U47C C84G | 0.604
G31U C64A | 0.364
C41A G59U | 1.11
G10U C63A | 0.845
G5C C14A | 0.0692
G10A C14A | 0.205
A42U G55U | 0.597
G40C C84A | 0.0831
G31C G34C | 0.0396
C14G G81A | 0.957
G11U C44A | 0.256
C21A C75G | 0.0346
G5U U69G | 0.485
G34U A45U | 0.0378
G31C U69A | 0.299
C3A C19G | 0.0441
G6A G55U | 0.831
C41A U69A | 0.831
C13A U79G | 0.151
G38C C41G | 0.406
G1A U12C | 0
G31U C66G | 0.266
C21A G40C | 0.111
U46C C66G | 0.594

Variant | self-cleavage
U27G G50C | 0.6
U27A C85U | 0.684
C22G G29A | 0.0886
A43C G53A | 0.554
G6U C18A | 0.131
G1C G38U | 0.0396
C13A G17C | 0
G11C G82A | 0.262
G50U C85U | 1.02
G28A U79A | 0
C44A C66U | 0.809
G40U G73U | 0.424
U23A C26U | 1.08
G74C G80U | 0.127
U27G G68C | 0.87
C14U G68C | 0.733
U9C C36U | 0.682
U60A C86U | 0.831
G54U C61U | 0.895
C3U U37A | 0.128
C32U C57A | 0.817
U20G C58U | 0.237
C22A G68A | 0.298
G1A G25C | 0

Variant | self-cleavage
G25A U47A | 0.0831
C21A A45C | 0.0652
C3U G67A | 0.822
C58U G80A | 0.372
A43C U72A | 0.151
A8U C32G | 0.125
G35U A42C | 0.115
G76C G82C | 0.225
G6A U27G | 0.643
C4G C64U | 0.214
C14A G31C | 0.0678
G25C G73A | 0.116
C41U C49G | 0.317
C21A A78C | 0
U79G A83U | 0.122
C61A A70G | 0.812
G35A U69A | 0.571
C30U G80U | 0.116
C18U U65C | 0.831
C14A C24G | 0.146
C4U C41G | 0.374
G38A G81A | 0.227
G1A U60G | 0.302
U27A C49U | 0.88

Variant | self-cleavage
G28A C32U | 0.0845
A51U A71G | 0.91
C24A C85A | 0.591
U12C A51G | 0.369
C41U A51U | 0.932
G5C C44G | 0
G55A G82U | 0.241
A42U C75A | 0.0405
C18G C85G | 0
A8U A78C | 0.128
C18G G53C | 0.227
A16U A78C | 0.156
C44A U60G | 0.554
G35A A87U | 0.391
C14G G50C | 0.302
G6C C14G | 0.111
G73U G80C | 0.2
C18G C62U | 0.308
G28A A43C | 0.108
A43C G54A | 0.415
A51G C57A | 0.877
G39C C41A | 0.802
C30G A43C | 0.0489
G59U A87U | 1.09

Variant | self-cleavage
C30U C44U | 0.289
C44A A51U | 1.13
G55A A71C | 0.978
G10A G29U | 0.0275
C48U G55A | 0.75
G6U A42U | 0.095
C21G G39C | 0.554
A45U U72A | 0.831
G2A A8U | 0.0432
G31A G74U | 0.134
C13G C19A | 0.0437
G1C C24U | 0.0489
G5U G68C | 0.359
G25C G38U | 0.0791
G52U C84U | 0.71
G55A U79C | 0.511
U47G C63U | 1.27
A42C C44G | 0.217
C22G C84U | 0.0563
C30U U79C | 0.148
G54U G59A | 1
U9C C57G | 1.17
G1U C13G | 0.369
G55C A56C | 0.969

Variant | self-cleavage
C21A G54C | 0.0804
U37C U46A | 0.458
U37G C49G | 0.196
A42G G68C | 0.271
C48G C61G | 1.06
A16C C32G | 0.293
G28C A77G | 0.119
C48U G74A | 0.517
G1C G17C | 0
C41A A43G | 0.808
C14U G80C | 0.314
G10C G35U | 0.374
G6A U47C | 0.525
G29A C41U | 0.25
G17C U47A | 0
G55C U79G | 0.802
C13U G38C | 0.0554
G25U G29U | 0.12
G55C G80C | 0.388
U60C G67U | 1.03
G6C U60G | 0.312
G52A C58G | 0.974
U12C A56U | 0.499
